{
  "source": "paper PMC10959958",
  "biological_target": "4-HNE-modified recombinant C99 with mutation Lys53Arg (human)",
  "assay": "SDS-PAGE with Western blot; recombinant C99 or C99^Lys53Arg reacted with 50-fold (R)-4-HNE (25 mM HEPES, 150 mM NaCl, pH 7.4, 37 °C, 1 h); C99 detected by C1/6.1 antibody, adducts by 4-HNE antibody; oligomer bands on the gel",
  "data": [
    {"substance": "4-HNE-modified recombinant C99 with mutation Lys53Arg (domain or fragment)", "values": [
      {"measurement": "stoichiometry N", "value": 2}
    ]}
  ]
}
